Values of other authors, collected in US20220241413A1, “COMBINATION THERAPIES USING CD-38 ANTIBODIES” (Takeda Pharmaceutical Company Limited, priority 2019, published 2022).
Like-named read-outs stand apart in the source and are kept apart here.

Assays:
[1] = cited from earlier work
[2] = tested on: NK cells; conditions: IV, patients with RRMM, doses up to 24 mg/kg; cited from earlier work
[3] = tested on: RBCs and platelets; conditions: cited from earlier work
[4] = cited from earlier work; remark: listed apart in the source
[5] = IV, patients with RRMM, doses up to 24 mg/kg; cited from earlier work
[6] = SC formulation with hyaluronidase

MOR202: anti-CD38 IgG1 antibody, used clinically via IV infusion
Grade ≥3 TEAE: hypertension ([1]; RRMM, IV infusion): 9% | Grade ≥3 TEAE: leukopenia ([1]; RRMM, IV infusion): 11% | Grade ≥3 TEAE: lymphopenia ([1]; RRMM, IV infusion): 18% | TEAE at any grade: anemia ([1]; RRMM, IV infusion): 34% | TEAE at any grade: fatigue ([1]; RRMM, IV infusion): 32% | TEAE at any grade: infusion-related reactions (IRRs) ([1]; RRMM, IV infusion): 30% | TEAE at any grade: leukopenia ([1]; RRMM, IV infusion): 30% | TEAE at any grade: lymphopenia ([1]; RRMM, IV infusion): 25% | TEAE at any grade: nausea ([1]; RRMM, IV infusion): 25% | patients with Grade ≥3 TEAEs ([1]; RRMM, IV infusion): 64% | infections ([1]; in vivo, iv): 59%

daratumumab: first approved anti-CD38 drug, anti-CD38 IgG1 antibody
comparable depletion of NK cells (to >90% with AB79) [2]: not achieved | binding to RBCs and platelets [3]: strongly bind | incidence of IRR, Grade 3 or higher ([4]; IV administration): ≤ 9% | incidence of IRR, all grades ([4]; IV administration): ≥ 50% | incidence of IRR, Grade 3 or higher [4, 6]: 8% | incidence of IRR, all grades [4, 6]: 16% | Grade 3 and 4 TEAE: hypertension ([4]; SC): 8% | Grade 3 and 4 TEAE: lymphopenia ([4]; SC): 20% | Grade 3 and 4 TEAE: neutropenia ([4]; SC): 8% | Grade 3 and 4 TEAE: thrombocytopenia ([4]; SC): 8% | injection site reactions (induration, erythema, discoloration, hematomas) ([4]; SC): 16.7 % of patients | persistence of positive indirect Coombs test results after the last infusion ([4]; binding to CD38 on RBCs): up to 6 months | patients with severe and serious IRRs, including anaphylactic reactions ([4]; human, in vivo): approximately half | mean Cmax [5]: > 500 µg/mL

isatuximab: anti-CD38 IgG1 antibody
binding to RBCs and platelets [3]: strongly bind
